# Test results reported in US10058586B2, “Use of human small leucine zipper protein in adipocyte differentiation procedure” (Korea University Research and Business Foundation, priority 2013, dated 2018).
# B1: sLZIP: human small leucine-zipper protein, isoform of LZIP, 354 amino acids, no transmembrane domain; GenBank FJ263669, SEQ ID NO: 1 (protein, listed as Homo sapiens)
# chain: MELELDAGDQDLLAFLLEESGDLGTAPDEAVRAPLDWALPLSEVPSDWEVDDLLCSLLSPPASLNILSSSNPCLVHHDHTYSLPRETVSMDLESESCRKEGTQMTPQHMEELAEQEIARLVLTDEEKSLLEKEGLILPETLPLTKTEEQILKRVRRKIRNKRSAQESRRKKKVYVGGLESRVLKYTAQNMELQNKVQLLEEQNLSLLDQLRKLQAMVIEISNKTSSSSMYSSDTRGSLPAEHGVLSRQLRALPSEDPYQLELPALQSEVPKDSTHQWLDGSDCVLQAPGNTSCLLHYMPQAPSAEPPLEWPFPDLFSEPLCRGPILPLQANLTRKGGWLPTGSPSVILQDRYSG
# B2: N domains of sLZIP: N-terminal deletion mutant of sLZIP, residues 1-228 (protein)
# chain: MELELDAGDQDLLAFLLEESGDLGTAPDEAVRAPLDWALPLSEVPSDWEVDDLLCSLLSPPASLNILSSSNPCLVHHDHTYSLPRETVSMDLESESCRKEGTQMTPQHMEELAEQEIARLVLTDEEKSLLEKEGLILPETLPLTKTEEQILKRVRRKIRNKRSAQESRRKKKVYVGGLESRVLKYTAQNMELQNKVQLLEEQNLSLLDQLRKLQAMVIEISNKTSSSS
# modifications: left off: a dimerising Fc or GST
# Experiments:
# [1] = system: CREB element in the FABP4 enhancer region; experiment: Electrophoretic mobility shift assay (EMSA) of His-sLZIP with FABP4 enhancer probes; assay type: binding
# Procedure: T4 polynucleotide kinase (Promega, Madison, Wis.) was used to label 5′-terminal of oligonucleotides with [γ-^32P]ATP (Perkin Elmer, Waltham, Mass.). According to instructions of the manufacturer, unbound nucleotides were removed through tubes in a Bio-Gel P-6 spin column (Bio-Rad, Inc., Hercules, Calif.). His-sLZIP proteins were pre-incubated for 20 minutes at room temperature in a 5× binding buffer [10×GRAB, 20 mM of DTT, poly(deoxyinosinic-deoxycytidylic), Sigma, St. Louis] and radiolabeled probes. Reaction mixtures were loaded in wells of 4% nondenaturing polyacrylamide gels, and subjected to electrophoresis for 45 minutes at 180 V in a 0.5×TBE buffer. For competition experiments, a binding reaction was incubated for 30 minutes with 100-fold molar excess of unlabeled CREB binding oligonucleotides before radiolabeled oligonucleotides were added. For supershift analysis, anti-His antibodies were added to a reaction mixture on ice for additional 30 minutes.
# A DNA binding ability of sLZIP with various elements in the FABP4 enhancer region was examined. For this purpose, recombinant His-sLZIP fusion proteins (3 μg) were incubated with γ-^32P-labeled oligonucleotide probes containing expected CREB binding elements (FIG. 7B). The γ-^32P-labeled oligonucleotide probes were incubated while an amount of purified His-sLZIPs was increased. For competition analysis, unlabeled CREB oligonucleotide probes of 100-fold excess were used and His antibodies were added to a reaction mixture on ice for additional […] (FIG. 7C). His-sLZIP proteins were subjected to EMSA using wild type and CREB mutant (TGATGTCA→TGGGGTCA) probes (FIG. 7D). 293T cells were temporarily transfected with PPARγ2 (0.5 μg), β-galactosidase (0.1 μg), FABP4 enhancer-luciferase reporter genes (0.2 μg) and sLZIP mutants at different contents (0.1 to 0.5 μg). After the transfection, the cells were stimulated with 10 nM of RZD (FIG. 7F). A luciferase activity was normalized to a β-galactosidase activity and represented as a relative activity (fold change). All experiments were repeated three times, and bars in the graph represent mean±standard deviation. ChIP analysis was performed using HA-sLZIP-specific antibodies and then PCR was performed. Input chromatins or immunoprecipitated chromatins were subjected to PCR and used as a control group for variables.
# PPARγ2 = experiment: GST pull-down / immunoprecipitation of sLZIP and PPARγ2 in transfected 293T cells; assay type: binding
# Procedure: 293T cells were obtained and washed with cold PBS. The cells were re-suspended in an IP lysis buffer [25 mM of Tris-HCl (pH 7.4), 150 mM of NaCl, 1 mM of EDTA, 1% NP-40 and 5% glycerol, and a protease inhibitor]. A suspension was centrifuged at 16,000×g for 20 minutes at 4° C. Supernatants were collected and incubated with 0.5 μg of appropriate antibodies and 25 μl of protein A/G-agarose or a GST Sepharose 4B bead for 24 hours at 4° C. A protein complex was centrifuged at 1,000×g with a cold IP lysis buffer for 1 minute and washed five times. The final pellet was re-suspended in 50 μl of an SDS-sample buffer containing 5% β-mercaptoethanol and heated for 10 minutes at 100° C. A protein sample was isolated in SDS-PAGE (8 to 10%) and transferred to nitrocellulose membranes. Co-precipitated proteins were detected according to western blotting using specific antibodies.
# In order to examine whether the transcriptional activity of PPARγ2 is regulated by interaction with sLZIP, interaction between sLZIP and PPARγ2 was examined. For this purpose, 293T cells were transfected with GST-sLZIP and Myc-PPARγ2. Cell lysates were obtained and GST pull-down analysis was performed using a glutathione 4B bead. A protein complex was analyzed in SDS-PAGE and then immunoblotted with specific antibodies (FIG. 2A). The 293T cells were transfected with GST-PPARγ2 and Flag-sLZIP, and identified according to GST-pull-down analysis (FIG. 2B). PPARγ2 was translated in vitro by a TNT translation system (Promega). His-sLZIP proteins were expressed in BL21 cells using an IPTG-inducement system. Purified His-sLZIP proteins were subjected to His pull-down analysis. Proteins bound to the bead were analyzed in SDS-PAGE, and then immunoblotted with anti-PPARγ2 and anti-His antibodies (FIG. 2C). GFP-PPARγ2 and Flag-sLZIP constructs were expressed in C3H10T1/2 cells, and analyzed using mouse anti-Flag and Texas Red-labeled anti-mouse antibodies under a fluorescence microscope. The nucleus was stained with DAPI (FIG. 2D).
# Activation of many nuclear receptors depends on a supplement of coactivators. Therefore, a domain of sLZIP necessary for binding with PPARγ2 was examined. For this purpose, 293T cells were transfected with GST-full length sLZIP (1-354), N-terminal deletion mutant sLZIP (1-228), C-terminal deletion mutant sLZIP (229-354), CC-terminal deletion mutant sLZIP (297-354) and PPARγ2. Cell lysates were obtained and GST pull-down analysis was performed using a glutathione 4B bead. A protein complex was analyzed in SDS-PAGE, and then immunoblotted with specific antibodies (FIG. 3A). 293T cells were transfected with Flag-full length PPARγ2, full length PPARγ2, N-terminal deletion mutant PPARγ2 (1-310), C-terminal deletion mutants PPARγ2 (139-505) and GST-sLZIP. Cell lysates were obtained and GST pull-down analysis was performed. A protein complex was analyzed in SDS-PAGE, and then immunoblotted with anti-GST and anti-Flag antibodies (FIG. 3B).
# For this purpose, 293T cells were transfected with GST-PPARγ2 and Flag-sLZIP and were treated or not treated with 10 nM of RZD for 24 hours. Cell lysates were obtained and GST pull-down analysis (FIG. 5A) and immunoprecipitation (FIG. 5B) were performed using a glutathione 4B bead. A protein complex was analyzed in SDS-PAGE, and immunoblotted with anti-GST and anti-Flag antibodies. GST-PARγ2 and Flag-sLZIP were expressed in the 293T cells, and the cells were treated with 10 nM of RZD according to time of day. The cell lysates were GST pull-down analyzed (FIG. 5C). 293T cells were transfected with GST-HDAC3 and Flag-sLZIP, and treated or not treated with 10 nM of RZD for 24 hours. The cell lysates were GST pull-down analyzed (FIG. 5D). Flag-sLZIP was expressed in the 293T cells, and the cells were treated with 10 nM of RZD for 24 hours. Immunoprecipitation analysis of the cell lysates was performed using anti-NCoR1 antibodies. […]
Molecule,"DNA binding to CREB element (EMSA, cold competition) ([1]; 100-fold excess unlabeled CREB probes)",DNA binding to CREB mutant probes (EMSA) ([1]; CREB mutant TGATGTCA→TGGGGTCA),supershift (EMSA) ([1]; His antibodies added),"DNA binding to elements in the FABP4 enhancer region (EMSA) ([1]; His-sLZIP 3 μg, labeled probes)",DNA binding ability with CREB element (EMSA) ([1]; increasing amount of purified His-sLZIP),"interaction with PPARγ2 (immunoprecipitation) (PPARγ2; 293T cells expressing Flag-sLZIP and GST-PPARγ2, ligand treated)","interaction with PPARγ2 (GST pull-down) (PPARγ2; 293T cells, 10 nM RZD for 24 hours)","time dependence of interaction with PPARγ2 (GST pull-down) (PPARγ2; 293T cells, 10 nM RZD, time course)","interaction with PPARγ2 (GST pull-down) (PPARγ2; 293T cells, no ligand)","interaction with PPARγ2 (GST pull-down) (PPARγ2; 293T cells, no ligand, listed as wild type sLZIP)"
B1,not bound to the CREB element when there were competitors,not bound to CREB mutant probes,supershifted,directly bound to a CREB region,increased in a concentration-dependent manner,PPARγ2 was dissociated from sLZIP,dissociated from PPARγ2,dissociated from PPARγ2 in a time-dependent manner,PPARγ2 interacted with sLZIP,interacted with PPARγ2
B2,–,–,–,–,–,–,–,–,not interacted with PPARγ2,–
